This test concerns the target PD-1 (soluble, biotinylated, on sensors or coated on plates) (human) (UniProt Q15116). As to the kind of experiment: method not stated at the list; Octet curves in FIG. 29. For orientation: In BLI a coated tip is dipped into the sample, and binding shifts an interference pattern.

PD-1 (soluble, biotinylated, on sensors or coated on plates) (human), sequence (Q15116 25-167 limits assumed): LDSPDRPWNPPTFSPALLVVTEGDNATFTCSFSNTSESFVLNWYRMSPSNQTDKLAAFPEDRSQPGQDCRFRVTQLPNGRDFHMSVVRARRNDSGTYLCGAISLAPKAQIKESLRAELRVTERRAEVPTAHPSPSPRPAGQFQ

B1: PD1#3 scFv-Fc (Fc fusion, part only; not given: Fc, linker, domain order, not shown: another chain or arm of the molecule; a dimerising Fc or GST; small tags and cut ends)
VH: QVQLVQSGAEVKKPGSSVKVSCKTSGYTFNRFGLTWVRQAPGQGLEWMGWTNPYNGNTRYAQKFQGRVTMTTDTSTSTAYMELRSLRSDDTAMYFCARVVAVNGMDVWGQGTTVTVSS
VL: NFMLTQPHSVSESPGKTVTISCTRNSGSIAAYYVQWYQQRPGSSPTTVIYEDNQRPSGVPDRFSGSIDSSSNSASLTISGLKTEDEADYYCQSYDSSNLWVFGGGTKLTVL
One may read the Kd as the constant that tells how readily two partners part at equilibrium. A higher Kd goes with weaker binding. In turn, B1 came in with a Kd of 0.1 nM.

Source of the values: US20220249640A1.
